# Laboratory results: patent US20200386770A1 (YUROGEN BIOSYSTEMS, published 2020)
# T1: human PD-L2 (human, UniProt Q9BQ51 20-220, limits assumed)
# T1 construct: Coated on plates in the direct ELISA; construct not described; also called programmed death ligand-2
# T1 sequence (looked up): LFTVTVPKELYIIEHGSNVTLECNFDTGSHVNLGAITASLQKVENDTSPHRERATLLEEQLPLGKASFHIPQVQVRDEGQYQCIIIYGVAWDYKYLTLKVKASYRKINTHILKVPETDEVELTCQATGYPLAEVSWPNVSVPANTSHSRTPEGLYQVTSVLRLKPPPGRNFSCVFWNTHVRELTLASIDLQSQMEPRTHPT
# Columns and labels:
# human PD-L2 = target: T1, human PD-L2; experiment: direct ELISA, human PD-L2 coated
# Method: The procedures of the direct ELISA are described in the method below. […] The negative control was conducted using the same procedures as the anti-human PD-L1 antibodies, except that a blank buffer is used instead of the anti-human PD-L1 antibodies. The blank buffer is the buffer for diluting the anti-human PD-L1 antibodies. […] Thereby, 2C5, 3B8, 8C6, 10H6, 11G7, and 12H2 can eliminate the cross-reactivity of human PD-L2.
# (§1) 3. Direct ELISA with rabbit monoclonal antibodies against human PD-L1 or PD-L2. Human PD-L1 and PD-L2 were coated on high binding ELISA plates at 4° C. overnight in 1×PBS, pH7.4. Coated plates were washed with Wash Buffer (1×PBS supplemented with 0.5% (V/V) Tween-20), and blocked with Blocking Buffer (1×PBS supplemented with 5% (W/V) skim milk). After blocking, plates were incubated with rabbit anti-PD-L1 monoclonal antibodies for 1 hour at room temperature, followed by washing and incubation with goat anti-rabbit IgG antibody conjugated with HRP. After a final wash, plated were developed using colorimetric reaction catalyzed by HRP to see if a monoclonal antibody can or cannot bind to PD-L1 and PD-L2.
# human PD-L1 [1] = target: T2, human PD-L1 (human, UniProt Q9NZQ7 19-238, limits assumed); experiment: direct ELISA, 10 ng/ml human PD-L1
# T2 construct: also called programmed death ligand-1; CD274
# T2 sequence (Q9NZQ7 19-238 limits assumed): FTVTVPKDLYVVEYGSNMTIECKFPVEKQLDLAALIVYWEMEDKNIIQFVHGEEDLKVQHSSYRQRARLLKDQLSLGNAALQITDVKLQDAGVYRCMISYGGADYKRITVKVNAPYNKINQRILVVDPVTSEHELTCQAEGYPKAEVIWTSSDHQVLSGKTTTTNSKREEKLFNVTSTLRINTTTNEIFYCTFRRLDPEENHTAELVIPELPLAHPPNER
# Method: as §1
# human PD-L1 [2] = target: T2, human PD-L1; experiment: sandwich ELISA (8C6 capture, 2C5 detection) compared with direct ELISA
# Method: As compared to the direct ELISA with 8C6 shown in FIG. […] The sandwich ELISA enhances the sensitivity of human PD-L1 to 2C5, as compared to the direct ELISA.
# as §1
# 5. Sandwich ELISA with rabbit monoclonal antibodies against human PD-L1. Capture antibodies were coated on high binding ELISA plates at 4° C. overnight in bicarbonate buffer. Coated plates were washed with Wash Buffer (1×PBS supplemented with 0.5% (V/V) Tween-20), and blocked with Blocking Buffer (1×PBS supplemented with 5% (W/V) skim milk). […]
OD450 at 10 ng/ml (human PD-L1 [1]),"fold sensitivity, sandwich ELISA against direct ELISA (human PD-L1 [2])",Binder,binding result (human PD-L2)
–,–,"rabbit anti-human PD-L1 mAb 12H2 (antibody, V domains shown, Recombinant rabbit IgG; Full heavy chain assembled from the Fab heavy chain entry followed by the Fc entry) VH: QEQLVESGGGLVQPEGSLTLTCTASGFSFSSSYYMCWVRQAPGKGLEWIACIWTSNGGRTYYANWAKGRFTISETSSTTVTLQMTSLTAADTATYFCARDDDTGSGYYNLWGPGTLVTVSS VL: QIVMTQTASPVSAAVGGTVTINCQASESISSWLAWYQQKPGQPPKLLIYKASTLASGVPSRFKGSGSGTEFTLTISDLECADAATYYCQHGYYFGSVANTFGGGTEVVVKG",no binding (tested: concentrations up to 1000 ng/ml)
~0.1 OD450,–,"rabbit anti-human PD-L1 mAb 11G7 (antibody, V domains shown, Recombinant rabbit IgG; Full heavy chain assembled from the Fab heavy chain entry followed by the Fc entry) VH: QSVEESGGRLVTPGTPLTLTCTVSGIDLSSYDMTWVRQAPGKGLEYIGYISYFDKTYYATWAKGRFTISKTSTTVDLKMTSLTTEDTATYFCVRDRPDGITANLWGQGTLVTVSS VL: AQLPTQTASPVSAAVGGTVTINCQSSHNVYSDNRLSWYQQKPGQPPKLLIYWASILASGVPSRFKGSGSGTQFTLTITDLECDDAATYYCAGGYSGNIYTFGGGTEVVVKG",no binding (tested: concentrations up to 1000 ng/ml)
–,≥ 2 fold,"rabbit anti-human PD-L1 mAb 2C5 (antibody, V domains shown, Recombinant rabbit IgG; Full heavy chain assembled from the Fab heavy chain entry followed by the Fc entry; Biotinylated when used as detection antibody in the sandwich ELISA) VH: QSVEESGGRLVTPGTPLTLTCTVSGFSLNNDNVGWVRQAPGKGLEWVGLIDILGSSYYASWAKGRFTISKTSNTVDLKITSPTIEDTATYFCAREGDGSFDPWGPGTLVTVSS VL: AQVLTQTPSPVSAAVGGTVTINCQASQNVYNKKNLAWYQQKLGQPPKLLIYKASTLASGVPSRFSGSGSGTQFTLTISDLECDDAATYYCQGDYIGSRAFGGGTEVVVKG",no binding (tested: concentrations up to 1000 ng/ml)
–,–,"rabbit anti-human PD-L1 mAb 10H6 (antibody, V domains shown, Recombinant rabbit IgG; Full heavy chain assembled from the Fab heavy chain entry followed by the Fc entry) VH: QEQLVESGGGLVQPEGSLTLTCTASGFSFSSIYYLCWVRQAPGKGLEWIACIYGGNSDNTWYASWAKGRFTISKTSSTTVTLQMTSLTAADTATYFCARGYDIYGYAINLWGPGTLVTVSS VL: DVVMTQTPASVEAAVGGTVTIKCQASQSIGGYLAWYQQKPGQPPKLLIYRASTLESGVASRFKGSGSGTEFTLTISDLECADAATYYCQCTYDSSNSRIYPNVFGGGTEVVVKG",no binding (tested: concentrations up to 1000 ng/ml)
–,–,"rabbit anti-human PD-L1 mAb 8C6 (antibody, V domains shown, Recombinant rabbit IgG; Full heavy chain assembled from the Fab heavy chain entry followed by the Fc entry; Biotinylated when used as detection antibody in the sandwich ELISA) VH: QSVEESGGRLVTPGTPLTLTCTASGFDISRHHMCWVRQAPGEGLEYIGFINPPGSAYYANWAKGRFTISRTSTTVALEMTSLTTEDTATYFCARWRFDDYGDLWGQGTLVTVSS VL: AYDMTQTPASVEVAVGGTVTIKCQASESIASYLAWYQQKPGQPPKLLIYKASTLASGVSSRFRGSGSGTEFTLTISGVECADAATYYCQQGYSATNIDNAFGGGTEVVVKG",no binding (tested: concentrations up to 1000 ng/ml)
–,–,"rabbit anti-human PD-L1 mAb 3B8 (antibody, V domains shown, Recombinant rabbit IgG; Full heavy chain assembled from the Fab heavy chain entry followed by the Fc entry; Biotinylated when used as detection antibody in the sandwich ELISA) VH: QSLEESGGDLVKPGASRTLTCTASGFSFSNNAYMCWVRQAPGKGLELIACIYSRYGNTHYASWAKGRFTISKTSSTTVTLQMTSLTAADTATYFCARGASGSSDYSFYFNLWGPGTLVTVSS VL: AYDMTQTPASVEVAVGGTVTIKCQASQSISSWLAWYQQKPGQPPKLLIYDAYDLASGVPSRFKGSGSGTQFTLTISGVECTDAATYYCQQGYSSENIDNSFGGGTDVVVKG",no binding (tested: concentrations up to 1000 ng/ml)
